Results on 11 molecules are retold here after patent US20090291890A1 (published 2009).

Test [1] deals with Factor X (Homo sapiens (Human)) (UniProt P00742).
A further test deals with T1, Mesyl-dFPR-ACC.
T1 sequence (peptide, N-terminal mesyl; D-Phe at position 1 (dF); C-terminal ACC fluorophore): FPR

Factor X (Homo sapiens (Human)), sequence (P00742 41-488 limits assumed): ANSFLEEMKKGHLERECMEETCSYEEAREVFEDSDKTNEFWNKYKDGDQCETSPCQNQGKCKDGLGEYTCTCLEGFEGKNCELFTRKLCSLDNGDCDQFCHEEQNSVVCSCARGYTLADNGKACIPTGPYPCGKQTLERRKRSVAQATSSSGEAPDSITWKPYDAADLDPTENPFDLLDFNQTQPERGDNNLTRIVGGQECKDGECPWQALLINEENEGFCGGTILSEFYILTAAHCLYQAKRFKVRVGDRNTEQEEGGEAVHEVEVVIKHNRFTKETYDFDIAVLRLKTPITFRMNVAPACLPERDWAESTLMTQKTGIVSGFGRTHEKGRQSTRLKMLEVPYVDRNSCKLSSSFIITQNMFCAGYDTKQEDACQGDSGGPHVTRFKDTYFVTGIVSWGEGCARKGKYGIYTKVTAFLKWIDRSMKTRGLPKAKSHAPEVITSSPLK

B1: S52A/S60A/Q286R/H373F-FVIIa (enzyme)
chain: ANAFLEELRPGSLERECKEEQCSFEEAREIFKDAERTKLFWISYSDGDQCAASPCQNGGACKDQLQSYICFCLPAFEGRNCETHKDDQLICVNENGGCEQYCSDHTGTKRSCRCHEGYSLLADGVSCTPTVEYPCGKIPILEKRNASKPQGRIVGGKVCPKGECPWQVLLLVNGAQLCGGTLINTIWVVSAAHCFDKIKNWRNLIAVLGEHDLSEHDGDEQSRRVAQVIIPSTYVPGTTNHDIALLRLHQPVVLTDHVVPLCLPERTFSERTLAFVRFSLVSGWGRLLDRGATALELMVLNVPRLMTQDCLQQSRKVGDSPNITEYMFCAGYSDGSKDSCKGDSGGPHATHYRGTWYLTGIVSWGQGCATVGFFGVYTRVSQYIEWLQKLMRSEPRPGVLLRAPFP
For the molecule B1, in test [1], the kcat/KM (M^-1s^-1), TF-dependent assay came out at 9.44e+07 M⁻¹ s⁻¹ and the kcat/KM, TF-independent assay was 30.1 M⁻¹ s⁻¹. The same molecule displayed an Activity (µmol/sec/µmol), specific activity for mesyl-dFPR-ACC (µmol/sec/µmol) with Mesyl-dFPR-ACC of 3.14.

B2: M298Q/H373F-FVIIa (enzyme)
chain: ANAFLEELRPGSLERECKEEQCSFEEAREIFKDAERTKLFWISYSDGDQCASSPCQNGGSCKDQLQSYICFCLPAFEGRNCETHKDDQLICVNENGGCEQYCSDHTGTKRSCRCHEGYSLLADGVSCTPTVEYPCGKIPILEKRNASKPQGRIVGGKVCPKGECPWQVLLLVNGAQLCGGTLINTIWVVSAAHCFDKIKNWRNLIAVLGEHDLSEHDGDEQSRRVAQVIIPSTYVPGTTNHDIALLRLHQPVVLTDHVVPLCLPERTFSERTLAFVRFSLVSGWGQLLDRGATALELQVLNVPRLMTQDCLQQSRKVGDSPNITEYMFCAGYSDGSKDSCKGDSGGPHATHYRGTWYLTGIVSWGQGCATVGFFGVYTRVSQYIEWLQKLMRSEPRPGVLLRAPFP
Regarding B2, in test [1], the kcat/KM (M^-1s^-1), TF-dependent assay worked out at 7.21e+07 M⁻¹ s⁻¹ and the kcat/KM, TF-independent assay was 96.4 M⁻¹ s⁻¹. The Activity (µmol/sec/µmol), specific activity for mesyl-dFPR-ACC (µmol/sec/µmol) in the test with Mesyl-dFPR-ACC was determined as 4.

B3: T239I/Q286R/M298Q-FVIIa (enzyme)
chain: ANAFLEELRPGSLERECKEEQCSFEEAREIFKDAERTKLFWISYSDGDQCASSPCQNGGSCKDQLQSYICFCLPAFEGRNCETHKDDQLICVNENGGCEQYCSDHTGTKRSCRCHEGYSLLADGVSCTPTVEYPCGKIPILEKRNASKPQGRIVGGKVCPKGECPWQVLLLVNGAQLCGGTLINTIWVVSAAHCFDKIKNWRNLIAVLGEHDLSEHDGDEQSRRVAQVIIPSTYVPGTINHDIALLRLHQPVVLTDHVVPLCLPERTFSERTLAFVRFSLVSGWGRLLDRGATALELQVLNVPRLMTQDCLQQSRKVGDSPNITEYMFCAGYSDGSKDSCKGDSGGPHATHYRGTWYLTGIVSWGQGCATVGHFGVYTRVSQYIEWLQKLMRSEPRPGVLLRAPFP
With B3, in test [1], the kcat/KM (M^-1s^-1), TF-dependent assay amounted to 1.13e+08 M⁻¹ s⁻¹ and the kcat/KM, TF-independent assay was found to be 11.3 M⁻¹ s⁻¹. In the test with Mesyl-dFPR-ACC, this molecule yielded an Activity (µmol/sec/µmol), specific activity for mesyl-dFPR-ACC (µmol/sec/µmol) of 1.37.

B4: S222A/T239I-FVIIa (enzyme)
chain: ANAFLEELRPGSLERECKEEQCSFEEAREIFKDAERTKLFWISYSDGDQCASSPCQNGGSCKDQLQSYICFCLPAFEGRNCETHKDDQLICVNENGGCEQYCSDHTGTKRSCRCHEGYSLLADGVSCTPTVEYPCGKIPILEKRNASKPQGRIVGGKVCPKGECPWQVLLLVNGAQLCGGTLINTIWVVSAAHCFDKIKNWRNLIAVLGEHDLSEHDGDEQARRVAQVIIPSTYVPGTINHDIALLRLHQPVVLTDHVVPLCLPERTFSERTLAFVRFSLVSGWGQLLDRGATALELMVLNVPRLMTQDCLQQSRKVGDSPNITEYMFCAGYSDGSKDSCKGDSGGPHATHYRGTWYLTGIVSWGQGCATVGHFGVYTRVSQYIEWLQKLMRSEPRPGVLLRAPFP
With B4, in test [1], the kcat/KM (M^-1s^-1), TF-dependent assay was 3.05e+07 M⁻¹ s⁻¹ and the kcat/KM, TF-independent assay is 1.7 M⁻¹ s⁻¹. Further, the Activity (µmol/sec/µmol), specific activity for mesyl-dFPR-ACC (µmol/sec/µmol) in the test with Mesyl-dFPR-ACC is 1.36.

B5: T239V/Q286R/H373F-FVIIa (enzyme)
chain: ANAFLEELRPGSLERECKEEQCSFEEAREIFKDAERTKLFWISYSDGDQCASSPCQNGGSCKDQLQSYICFCLPAFEGRNCETHKDDQLICVNENGGCEQYCSDHTGTKRSCRCHEGYSLLADGVSCTPTVEYPCGKIPILEKRNASKPQGRIVGGKVCPKGECPWQVLLLVNGAQLCGGTLINTIWVVSAAHCFDKIKNWRNLIAVLGEHDLSEHDGDEQSRRVAQVIIPSTYVPGTVNHDIALLRLHQPVVLTDHVVPLCLPERTFSERTLAFVRFSLVSGWGRLLDRGATALELMVLNVPRLMTQDCLQQSRKVGDSPNITEYMFCAGYSDGSKDSCKGDSGGPHATHYRGTWYLTGIVSWGQGCATVGFFGVYTRVSQYIEWLQKLMRSEPRPGVLLRAPFP
Take B5: in test [1], the kcat/KM (M^-1s^-1), TF-dependent assay was found to be 1.06e+08 M⁻¹ s⁻¹ and the kcat/KM, TF-independent assay was 12.2 M⁻¹ s⁻¹. Besides, the Activity (µmol/sec/µmol), specific activity for mesyl-dFPR-ACC (µmol/sec/µmol) with Mesyl-dFPR-ACC is 1.53.

B6: T239V/Q286R/M298Q/H373F-FVIIa (enzyme)
chain: ANAFLEELRPGSLERECKEEQCSFEEAREIFKDAERTKLFWISYSDGDQCASSPCQNGGSCKDQLQSYICFCLPAFEGRNCETHKDDQLICVNENGGCEQYCSDHTGTKRSCRCHEGYSLLADGVSCTPTVEYPCGKIPILEKRNASKPQGRIVGGKVCPKGECPWQVLLLVNGAQLCGGTLINTIWVVSAAHCFDKIKNWRNLIAVLGEHDLSEHDGDEQSRRVAQVIIPSTYVPGTVNHDIALLRLHQPVVLTDHVVPLCLPERTFSERTLAFVRFSLVSGWGRLLDRGATALELQVLNVPRLMTQDCLQQSRKVGDSPNITEYMFCAGYSDGSKDSCKGDSGGPHATHYRGTWYLTGIVSWGQGCATVGFFGVYTRVSQYIEWLQKLMRSEPRPGVLLRAPFP
B6: in test [1], the kcat/KM (M^-1s^-1), TF-dependent assay came out at 1.7e+08 M⁻¹ s⁻¹ and the kcat/KM, TF-independent assay came to 40.7 M⁻¹ s⁻¹. Moreover, the Activity (µmol/sec/µmol), specific activity for mesyl-dFPR-ACC (µmol/sec/µmol) with Mesyl-dFPR-ACC amounted to 3.07.

B7: S222A/T239V-FVIIa (enzyme)
chain: ANAFLEELRPGSLERECKEEQCSFEEAREIFKDAERTKLFWISYSDGDQCASSPCQNGGSCKDQLQSYICFCLPAFEGRNCETHKDDQLICVNENGGCEQYCSDHTGTKRSCRCHEGYSLLADGVSCTPTVEYPCGKIPILEKRNASKPQGRIVGGKVCPKGECPWQVLLLVNGAQLCGGTLINTIWVVSAAHCFDKIKNWRNLIAVLGEHDLSEHDGDEQARRVAQVIIPSTYVPGTVNHDIALLRLHQPVVLTDHVVPLCLPERTFSERTLAFVRFSLVSGWGQLLDRGATALELMVLNVPRLMTQDCLQQSRKVGDSPNITEYMFCAGYSDGSKDSCKGDSGGPHATHYRGTWYLTGIVSWGQGCATVGHFGVYTRVSQYIEWLQKLMRSEPRPGVLLRAPFP
Consider B7, for which, in test [1], the kcat/KM (M^-1s^-1), TF-dependent assay stood at 7.49e+07 M⁻¹ s⁻¹ and the kcat/KM, TF-independent assay came to 3 M⁻¹ s⁻¹. The Activity (µmol/sec/µmol), specific activity for mesyl-dFPR-ACC (µmol/sec/µmol) in the test with Mesyl-dFPR-ACC worked out at 1.91.

B8: Q286R/M298Q/H373F-FVIIa (enzyme)
chain: ANAFLEELRPGSLERECKEEQCSFEEAREIFKDAERTKLFWISYSDGDQCASSPCQNGGSCKDQLQSYICFCLPAFEGRNCETHKDDQLICVNENGGCEQYCSDHTGTKRSCRCHEGYSLLADGVSCTPTVEYPCGKIPILEKRNASKPQGRIVGGKVCPKGECPWQVLLLVNGAQLCGGTLINTIWVVSAAHCFDKIKNWRNLIAVLGEHDLSEHDGDEQSRRVAQVIIPSTYVPGTTNHDIALLRLHQPVVLTDHVVPLCLPERTFSERTLAFVRFSLVSGWGRLLDRGATALELQVLNVPRLMTQDCLQQSRKVGDSPNITEYMFCAGYSDGSKDSCKGDSGGPHATHYRGTWYLTGIVSWGQGCATVGFFGVYTRVSQYIEWLQKLMRSEPRPGVLLRAPFP
Consider B8, for which, in test [1], the kcat/KM (M^-1s^-1), TF-dependent assay turned out to be 1.36e+08 M⁻¹ s⁻¹ and the kcat/KM, TF-independent assay amounted to 115 M⁻¹ s⁻¹. This molecule gave an Activity (µmol/sec/µmol), specific activity for mesyl-dFPR-ACC (µmol/sec/µmol) with Mesyl-dFPR-ACC of 4.59.

B9: V158D/T239I/E296V/M298Q-FVIIa (enzyme)
chain: ANAFLEELRPGSLERECKEEQCSFEEAREIFKDAERTKLFWISYSDGDQCASSPCQNGGSCKDQLQSYICFCLPAFEGRNCETHKDDQLICVNENGGCEQYCSDHTGTKRSCRCHEGYSLLADGVSCTPTVEYPCGKIPILEKRNASKPQGRIVGGKDCPKGECPWQVLLLVNGAQLCGGTLINTIWVVSAAHCFDKIKNWRNLIAVLGEHDLSEHDGDEQSRRVAQVIIPSTYVPGTINHDIALLRLHQPVVLTDHVVPLCLPERTFSERTLAFVRFSLVSGWGQLLDRGATALVLQVLNVPRLMTQDCLQQSRKVGDSPNITEYMFCAGYSDGSKDSCKGDSGGPHATHYRGTWYLTGIVSWGQGCATVGHFGVYTRVSQYIEWLQKLMRSEPRPGVLLRAPFP
Consider B9, for which, in test [1], the kcat/KM (M^-1s^-1), TF-dependent assay came out at 1.45e+08 M⁻¹ s⁻¹ and the kcat/KM, TF-independent assay was 216 M⁻¹ s⁻¹. The molecule also showed an Activity (µmol/sec/µmol), specific activity for mesyl-dFPR-ACC (µmol/sec/µmol) with Mesyl-dFPR-ACC of 2.24.

B10: S222A/T239I/H257A/Q286R/M298Q-FVIIa (enzyme)
chain: ANAFLEELRPGSLERECKEEQCSFEEAREIFKDAERTKLFWISYSDGDQCASSPCQNGGSCKDQLQSYICFCLPAFEGRNCETHKDDQLICVNENGGCEQYCSDHTGTKRSCRCHEGYSLLADGVSCTPTVEYPCGKIPILEKRNASKPQGRIVGGKVCPKGECPWQVLLLVNGAQLCGGTLINTIWVVSAAHCFDKIKNWRNLIAVLGEHDLSEHDGDEQARRVAQVIIPSTYVPGTINHDIALLRLHQPVVLTDAVVPLCLPERTFSERTLAFVRFSLVSGWGRLLDRGATALELQVLNVPRLMTQDCLQQSRKVGDSPNITEYMFCAGYSDGSKDSCKGDSGGPHATHYRGTWYLTGIVSWGQGCATVGHFGVYTRVSQYIEWLQKLMRSEPRPGVLLRAPFP
For the molecule B10, in test [1], the kcat/KM (M^-1s^-1), TF-dependent assay came to 1.14e+08 M⁻¹ s⁻¹ and the kcat/KM, TF-independent assay turned out to be 51.6 M⁻¹ s⁻¹. Further, the Activity (µmol/sec/µmol), specific activity for mesyl-dFPR-ACC (µmol/sec/µmol) in the test with Mesyl-dFPR-ACC was found to be 1.41.

B11: T239I/Q286R-FVIIa (enzyme)
chain: ANAFLEELRPGSLERECKEEQCSFEEAREIFKDAERTKLFWISYSDGDQCASSPCQNGGSCKDQLQSYICFCLPAFEGRNCETHKDDQLICVNENGGCEQYCSDHTGTKRSCRCHEGYSLLADGVSCTPTVEYPCGKIPILEKRNASKPQGRIVGGKVCPKGECPWQVLLLVNGAQLCGGTLINTIWVVSAAHCFDKIKNWRNLIAVLGEHDLSEHDGDEQSRRVAQVIIPSTYVPGTINHDIALLRLHQPVVLTDHVVPLCLPERTFSERTLAFVRFSLVSGWGRLLDRGATALELMVLNVPRLMTQDCLQQSRKVGDSPNITEYMFCAGYSDGSKDSCKGDSGGPHATHYRGTWYLTGIVSWGQGCATVGHFGVYTRVSQYIEWLQKLMRSEPRPGVLLRAPFP
Turning to B11, in test [1], the kcat/KM (M^-1s^-1), TF-dependent assay turned out to be 5.79e+07 M⁻¹ s⁻¹ and the kcat/KM, TF-independent assay stood at 4.6 M⁻¹ s⁻¹. Also, the Activity (µmol/sec/µmol), specific activity for mesyl-dFPR-ACC (µmol/sec/µmol) with Mesyl-dFPR-ACC was found to be 0.88.
